Our source for the cell viability and tissue uptake values is PMC9165289, “Theranostic PSMA ligands with optimized backbones for intraoperative multimodal imaging and photodynamic therapy of prostate cancer” (European Journal of Nuclear Medicine and Molecular Imaging, 2022).

Like-named read-outs stand apart in the source and are kept apart here.

The test system of one data set is LS174T-PSMA cells. The experiment in a line: in vitro targeted PDT assay (CellTiter-Glo). Format: cell-based, human. To be noted: 30 nM ligand, irradiated with 100 J/cm^2. How it is done: LS174T wildtype (LS174T-WT) and LS174T-PSMA cells were cultured to confluency in 48-well plates. Cells were incubated (2 h, 5% CO2, 37 °C) with 30-nM PSMA ligand in binding buffer (RPMI 1640 + 0.5% BSA) in triplicate. After washing with PBS, a 0.5-ml binding buffer was added to each well, and cells were irradiated with a NIR light-emitting diode (690 ± 20 nm). The typical forward voltage was 2.6 V creating a power output of 490 mW using 126 individual LED bulbs to ensure homogenous illumination of the area of interest predefined as 5 × 3 cm. The cells were irradiated at NIR radiant exposures of 100 J/cm^2 ([…]) and subsequently incubated for 1 h at 37 °C. Cells that only received the PSMA ligand, only the NIR light, or neither the ligand nor the light were included as controls. Cytotoxic effects of PDT with PSMA ligands were determined with a CellTiter-Glo™ assay (Promega Benelux) according to the manufacturer’s instructions. The binding buffer was replaced with 100-µl fresh binding buffer and 100-µl CellTiter-Glo® 2.0 Assay. Plates were shaken (2 min) and incubated for 10 min at room temperature. Next, luminescence was measured in a plate reader (Tecan Infinite® 200 PRO) to determine the metabolic activity of the cells.
(In general: Cellular ATP, detected with luciferase, serves as a proxy for viable cell number.)

Data set [1] in a line: PSMA-N064 blocking experiment, ex vivo biodistribution. Format: in vivo, BALB/c nude mice. The following applies: male, BALB/c nude, mouse, in vivo, total radioactivity, 2 h p.i., n=5. How it is done:
All animal experiments were approved by the institutional Animal Welfare Committee of the Radboud University Medical Center and were conducted in accordance to the guidelines of the Revised Dutch Act on Animal Experimentation. Animal experiments were performed in 8–10 weeks old male BALB/c nude mice (Janvier). The mice were housed in individually ventilated cages (Blue line IVC, 3–5 mice per cage), under standard non-sterile conditions with cage enrichment present. There was free access to chlorophyll-free animal chow (Sniff Voer) and water. Mice were subcutaneously inoculated with 3.0 × 10^6 LS174T-PSMA cells in the right flank and 1.5 × 10^6 LS174T WT cells in the left flank (diluted in 200-µl RPMI 1640 medium). When xenografts were approximately 0.5 cm^3 (10–14 days after injection), mice were block-randomized into groups based on tumor size. The researchers were not blinded for the experimental groups.
Five mice per group were intravenously injected with either 0.1 nmol PSMA-N064, 0.3 nmol PSMA-N064, 0.1 nmol PSMA-N064 + 10 nmol unlabeled PSMA-617 (100x excess) or PSMA-617. Ligands were labeled with 10 MBq ^111In in PBS+0.5% (w/v) BSA. For the ex vivo biodistribution four groups (one for each experimental condition) of five mice were included. Two hours p.i., all mice from all groups were euthanized by CO2/O2-asphyxiation and relevant tissues were dissected, weighed and measured for radioactivity in a gamma-counter (2480 WIZARD^2 Automatic Gamma Counter, PerkinElmer).

As for `C[Si](C)(CCC[N+](CCCS(=O)(=O)[O-])(CCCS(=O)(=O)O)CCCS(=O)(=O)O)O[Si]1(O[Si](C)(C)CCC[N+](CCCS(=O)(=O)[O-])(CCCS(=O)(=O)O)CCCS(=O)(=O)O)n2c3c4ccccc4c2N=C2N=C(N=c4c5c(OCCCOC(=O)NCCCCCC(=O)NCCCC[C@H](NC(=O)CN6CCN(CC(=O)O)CCN(CC(=O)O)CCN(CC(=O)O)CC6)C(=O)NCCCC[C@H](NC(=O)[C@H](CCC(=O)O)NC(=O)c6ccccc6)C(=O)NCc6ccc(C(=O)N[C@@H](Cc7ccc8ccccc8c7)C(=O)NCCCC[C@H](NC(=O)N[C@@H](CCC(=O)O)C(=O)O)C(=O)O)cc6)cccc5c(n41)=NC1=NC(=N3)c3ccccc31)c1ccccc12` [PSMA-N01], the cell viability with LS174T-PSMA cells was 23% ± 5%.
The same measure, in the same setting: the result for `C[Si](C)(CCC[N+](CCCS(=O)(=O)[O-])(CCCS(=O)(=O)O)CCCS(=O)(=O)O)O[Si]1(O[Si](C)(C)CCC[N+](CCCS(=O)(=O)[O-])(CCCS(=O)(=O)O)CCCS(=O)(=O)O)n2c3c4ccccc4c2N=C2N=C(N=c4c5c(OCCCOC(=O)NCCCCCC(=O)NCCCC[C@H](NC(=O)CN6CCN(CC(=O)O)CCN(CC(=O)O)CCN(CC(=O)O)CC6)C(=O)NCCCC[C@H](NC(=O)[C@H](CCC(=O)O)NC(=O)c6ccccc6)C(=O)NC[C@H]6CC[C@H](C(=O)N[C@@H](Cc7ccc8ccccc8c7)C(=O)NCCCC[C@H](NC(=O)N[C@@H](CCC(=O)O)C(=O)O)C(=O)O)CC6)cccc5c(n41)=NC1=NC(=N3)c3ccccc31)c1ccccc12` [PSMA-N03] reads 25% ± 4%.
`C[Si](C)(CCC[N+](CCCS(=O)(=O)[O-])(CCCS(=O)(=O)O)CCCS(=O)(=O)O)O[Si]1(O[Si](C)(C)CCC[N+](CCCS(=O)(=O)[O-])(CCCS(=O)(=O)O)CCCS(=O)(=O)O)n2c3c4ccccc4c2N=C2N=C(N=c4c5c(OCCCOC(=O)NCCCCCC(=O)NCCCC[C@H](NC(=O)CCC(C(=O)O)N6CCN(CC(=O)O)CCN(CC(=O)O)CCN(CC(=O)O)CC6)C(=O)N[C@@H](Cc6ccccc6)C(=O)N[C@@H](CCC(=O)O)C(=O)N[C@@H](CCC(=O)O)C(=O)NCCCCCC(=O)NCCCC[C@H](NC(=O)N[C@@H](CCC(=O)O)C(=O)O)C(=O)O)cccc5c(n41)=NC1=NC(=N3)c3ccccc31)c1ccccc12` (some centres unmarked) [PSMA-N064]: the tissue uptake at 2 h in data set [1] (iv, 0.1 nmol, 0.1 nmol, 10 MBq, i.v., read-out: Biodistribution Blood) amounted to 0.2 ± 0.2 %ID/g; in data set [1] (iv, 0.1 nmol, 0.1 nmol, 10 MBq, i.v., read-out: Biodistribution Bone), 0.7 ± 0.2 %ID/g; in data set [1] (iv, 0.1 nmol, 0.1 nmol, 10 MBq, i.v., read-out: Biodistribution Kidney), 82.9 ± 7.8 %ID/g; in data set [1] (iv, 0.1 nmol, 0.1 nmol, 10 MBq, i.v., read-out: Biodistribution Liver) it was 0.8 ± 0.1 %ID/g; in data set [1] (iv, 0.1 nmol, 0.1 nmol, 10 MBq, i.v., read-out: Biodistribution Muscle) it was 0.4 ± 0.4 %ID/g; in data set [1] (iv, 0.1 nmol, 0.1 nmol, 10 MBq, i.v., read-out: Biodistribution Prostate), 0.5 ± 0.2 %ID/g. For the same compound, the tissue uptake at 2 h in data set [1] (iv, 0.1 nmol, 0.1 nmol, 10 MBq, i.v., read-out: Biodistribution Salivary glands) was 0.6 ± 0.1 %ID/g; in data set [1] (iv, 0.1 nmol, 0.1 nmol, 10 MBq, i.v., read-out: Biodistribution Spleen), 1.6 ± 0.4 %ID/g; in data set [1] (iv, 0.1 nmol, 0.1 nmol, 10 MBq, i.v., read-out: Biodistribution Tumor+ LS174T-PSMA), 12 ± 2 %ID/g; in data set [1] (iv, 0.1 nmol, 0.1 nmol, 10 MBq, i.v., read-out: Biodistribution Tumor- LS174T), 0.4 ± 0.1 %ID/g; in data set [1] (iv, 0.3 nmol, 0.3 nmol, 10 MBq, i.v., read-out: Biodistribution Blood), 0.4 ± 0.3 %ID/g; in data set [1] (iv, 0.3 nmol, 0.3 nmol, 10 MBq, i.v., read-out: Biodistribution Bone) it was 0.8 ± 0.1 %ID/g. In addition, the tissue uptake at 2 h in data set [1] (iv, 0.3 nmol, 0.3 nmol, 10 MBq, i.v., read-out: Biodistribution Kidney) is 64.4 ± 9.7 %ID/g; in data set [1] (iv, 0.3 nmol, 0.3 nmol, 10 MBq, i.v., read-out: Biodistribution Liver), 1 ± 0.2 %ID/g; in data set [1] (iv, 0.3 nmol, 0.3 nmol, 10 MBq, i.v., read-out: Biodistribution Muscle) it was 0.5 ± 0.3 %ID/g; in data set [1] (iv, 0.3 nmol, 0.3 nmol, 10 MBq, i.v., read-out: Biodistribution Prostate), 0.6 ± 0.2 %ID/g; in data set [1] (iv, 0.3 nmol, 0.3 nmol, 10 MBq, i.v., read-out: Biodistribution Salivary glands), 0.6 ± 0.2 %ID/g; in data set [1] (iv, 0.3 nmol, 0.3 nmol, 10 MBq, i.v., read-out: Biodistribution Spleen), 1.9 ± 0.5 %ID/g. The tissue uptake at 2 h is 12.2 ± 1.1 %ID/g in data set [1] (iv, 0.3 nmol, 0.3 nmol, 10 MBq, i.v., read-out: Biodistribution Tumor+ LS174T-PSMA); 0.5 ± 0.1 %ID/g in data set [1] (iv, 0.3 nmol, 0.3 nmol, 10 MBq, i.v., read-out: Biodistribution Tumor- LS174T); 0.2 ± 0.1 %ID/g in data set [1] (0.1 nmol + 10 nmol unlabeled PSMA-617 (block, 100x excess), read-out: Biodistribution Blood); 0.4 ± 0.1 %ID/g in data set [1] (0.1 nmol + 10 nmol unlabeled PSMA-617 (block, 100x excess), read-out: Biodistribution Bone); 39.5 ± 5 %ID/g in data set [1] (0.1 nmol + 10 nmol unlabeled PSMA-617 (block, 100x excess), read-out: Biodistribution Kidney); 0.7 ± 0.2 %ID/g in data set [1] (0.1 nmol + 10 nmol unlabeled PSMA-617 (block, 100x excess), read-out: Biodistribution Liver). Moreover, the tissue uptake at 2 h in data set [1] (0.1 nmol + 10 nmol unlabeled PSMA-617 (block, 100x excess), read-out: Biodistribution Muscle) was 0.1 ± 0.1 %ID/g; in data set [1] (0.1 nmol + 10 nmol unlabeled PSMA-617 (block, 100x excess), read-out: Biodistribution Prostate), 0.2 ± 0.1 %ID/g; in data set [1] (0.1 nmol + 10 nmol unlabeled PSMA-617 (block, 100x excess), read-out: Biodistribution Salivary glands) it was 0.4 ± 0.1 %ID/g; in data set [1] (0.1 nmol + 10 nmol unlabeled PSMA-617 (block, 100x excess), read-out: Biodistribution Spleen), 0.5 ± 0.1 %ID/g; in data set [1] (0.1 nmol + 10 nmol unlabeled PSMA-617 (block, 100x excess), read-out: Biodistribution Tumor+ LS174T-PSMA) it was 1 ± 0.1 %ID/g; in data set [1] (0.1 nmol + 10 nmol unlabeled PSMA-617 (block, 100x excess), read-out: Biodistribution Tumor- LS174T) it was 0.4 ± 0.2 %ID/g.
